Bounds are passed on as bounds.

The test has as its target soluble trimeric SARS-CoV-2 spike protein (residues 1-1208) (SARS-CoV-2), P0DTC2. As to the kind of experiment: SPR. Conditions: remark: other sources report otherwise.

B1: soluble recombinant human DPP4 (residues 29-766), His6-tagged, P27487 29-766 (enzyme)
chain: NKGTDDATADSRKTYTLTDYLKNTYRLKLYSLRWISDHEYLYKQENNILVFNAEYGNSSVFLENSTFDEFGHSINDYSISPDGQFILLEYNYVKQWRHSYTASYDIYDLNKRQLITEERIPNNTQWVTWSPVGHKLAYVWNNDIYVKIEPNLPSYRITWTGKEDIIYNGITDWVYEEEVFSAYSALWWSPNGTFLAYAQFNDTEVPLIEYSFYSDESLQYPKTVRVPYPKAGAVNPTVKFFVVNTDSLSSVTNATSIQITAPASMLIGDHYLCDVTWATQERISLQWLRRIQNYSVMDICDYDESSGRWNCLVARQHIEMSTTGWVGRFRPSEPHFTLDGNSFYKIISNEEGYRHICYFQIDKKDCTFITKGTWEVIGIEALTSDYLYYISNEYKGMPGGRNLYKIQLSDYTKVTCLSCELNPERCQYYSVSFSKEAKYYQLRCSGPGLPLYTLHSSVNDKGLRVLEDNSALDKMLQNVQMPSKKLDFIILNETKFWYQMILPPHFDKSKKYPLLLDVYAGPCSQKADTVFRLNWATYLASTENIIVASFDGRGSGYQGDKIMHAINRRLGTFEVEDQIEAARQFSKMGFVDNKRIAIWGWSYGGYVTSMVLGSGSGVFKCGIAVAPVSRWEYYDSVYTERYMGLPTPEDNLDHYRNSTVMSRAENFKQVEYLLIHGTADDNVHFQQSAQISKALVDVGVDFQAMWYTDEDHGIASSTAHQHIYTHMSHFIKQCFSLP
As to B1, the Kd is greater than 10 µM.

The record behind these values is PMC7698748.
